Source: the RNAGym collection of RNA variant scans (doi:10.7554/elife.80360)

B1: Hairpin Ribozyme (parent)
chain: GUCCUCUUUCACGUGCGCGUGAAAGAGAGAAGUGAACCAGAGAAACACACGUUGUGGUAUAUUACCUGGUA

Variants of: B1
Test: self-cleavage, relative activity (ratio to wild type); higher = more cleavage; co-transcriptional

First: GUCCUCUUUCACGUGCGCGGGAAAGAGAGAAGUGAACCAGAAAAACACACGUUGUGGUAUAUUACCUGGUA
Second: GUCCUCUUUCACGUGCGCGUAAAAGAUAGAAGUGAACCAGAGAAACACACGUUGUGGUAUAUUACCUGGUA
The self-cleavage of the first is higher: 0.266 for the first, 0.227 for the second.

Compared with GUCCUCUUUCACGUGCGCGUAGAAGAGAGAAGUGAACCAGAGAAACACACGUUGUGGUAUAUUACCUGGUA, GUCCUCUUUCACGUGCGCGUAAAAGAGAGAAGUGAACUAGAGAAACACACGUUGUGGUAUAUUACCUGGUA is lower in self-cleavage: 0.728 for the first, 0.466 for the second.

Going from GUCCUCUUUCACGUGCGCGGGAAAGAGAGAAGUGAACCAGAGAAACACACGUUGCGGUAUAUUACCUGGUA to GUCCUCUUUCACGUGCGCGGGAAAGAGAGAAGUGAACCAGAGAAACACACGUUGGGGUAUAUUACCUGGUA, the self-cleavage rises from 0.268 to 0.293.

First: GUCCUCUUUCACGUGCGCGGGAAAGAGAGAAGUGAACCAGAGAAACACACGUUGAGGUAUAUUACCUGGUA
Second: GUCCUCUUUCACGUGCGCGGGAAAGAGAGAAGUGAACCAGAGAAUCACACGUUGUGGUAUAUUACCUGGUA
The self-cleavage of the first is higher: 0.147 for the first, 0.117 for the second.

Compared with GUCCUCUUUCACGUGCGCGUAAAAGAGAGAAGUGAACCAGAGAAACACUCGUUGUGGUAUAUUACCUGGUA, GUCCUCUUUCACGUGCGCGUAAAAGAGAGAAGGGAACCAGAGAAACACACGUUGUGGUAUAUUACCUGGUA is lower in self-cleavage: 0.234 for the first, 0.104 for the second.

Going from GUCCUCUUUCACGUGCGCGUAAAAGAGAGAAGCGAACCAGAGAAACACACGUUGUGGUAUAUUACCUGGUA to GUCCUCUUUCACGUGCGCGUAAAAGAGAUAAGUGAACCAGAGAAACACACGUUGUGGUAUAUUACCUGGUA, the self-cleavage rises from 0.116 to 0.186.

Compared with GUCCUCUUUCACGUGCGCGUAAAAGAGAGAAGUGAACCAGAGAAACACAAGUUGUGGUAUAUUACCUGGUA, GUCCUCUUUCACGUGCGCGGGAAAGAGAGAAGUGAACCAGAGAAACAGACGUUGUGGUAUAUUACCUGGUA is lower in self-cleavage: 0.306 for the first, 0.179 for the second.

First: GUCCUCUUUCACGUGCGCGGGAAAUAGAGAAGUGAACCAGAGAAACACACGUUGUGGUAUAUUACCUGGUA
Second: GUCCUCUUUCACGUGCGCGUAAAAGAGAGAAGUGAACCAGAGAAACACACGUUGUGAUAUAUUACCUGGUA
The self-cleavage of the first is higher: 0.64 for the first, 0.192 for the second.

First: GUCCUCUUUCACGUGCGCGUAAAAGAGAGAAGUGAACCAGAGAAACACACGUUGUGGUAUAUUACCUGGAA
Second: GUCCUCUUUCACGUGCGCGUAAAAGAGAGAAGUGAACCAGAGAAACACACGUUGUGGUAUAUUCCCUGGUA
The self-cleavage of the first is higher: 0.742 for the first, 0.207 for the second.

First: GUCCUCUUUCACGUGCGCGGGAAAGAUAGAAGUGAACCAGAGAAACACACGUUGUGGUAUAUUACCUGGUA
Second: GUCCUCUUUCACGUGCGCGUAAAAGAGAGAAGUGAACCAGUGAAACACACGUUGUGGUAUAUUACCUGGUA
The self-cleavage of the first is lower: 0.154 for the first, 1.07 for the second.

First: GUCCUCUUUCACGUGCGCGUAAAAGAGAGAAGUGAACCAGAGAAACACACGCUGUGGUAUAUUACCUGGUA
Second: GUCCUCUUUCACGUGCGCGGGAAAGAGAGAAGUGAACCAGAGAAACACACGUUGUCGUAUAUUACCUGGUA
The self-cleavage of the first is higher: 0.817 for the first, 0.312 for the second.

First: GUCCUCUUUCACGUGCGCGGGAAAGAGAGAAGUGAACCAGAGAAACACACGUUGUGGUAUAUUUCCUGGUA
Second: GUCCUCUUUCACGUGCGCGGGAAAGAGAGAAGUGAACCAGAGAAACACACGUUGUGGUAUAUUCCCUGGUA
The self-cleavage of the first is lower: 0.141 for the first, 0.184 for the second.

Going from GUCCUCUUUCACGUGCGCGGGAAAGAGAGAAGUGAACCAGAGAAACACACGUUGUGGUAUAUUACCUGGAA to GUCCUCUUUCACGUGCGCGGGAAAGAGAGAAGUGAACCAGAGAAACACACGUUGUGGUAUAUUACCUGGCA, the self-cleavage falls from 1.07 to 0.783.

Going from GUCCUCUUUCACGUGCGCGUAAAAGAGAGAAGUGAACCAGAGAAACACACGUUGUGGUAUAUUACGUGGUA to GUCCUCUUUCACGUGCGCGUAAAAGAGAGAAGUGAACCAGAGAAACCCACGUUGUGGUAUAUUACCUGGUA, the self-cleavage rises from 0.156 to 0.402.

First: GUCCUCUUUCACGUGCGCGUAAAAGAGAGAAGUGAACCAGAGAAACGCACGUUGUGGUAUAUUACCUGGUA
Second: GUCCUCUUUCACGUGCGCGUCAUAGAGAGAAGUGAACCAGAGAAACACACGUUGUGGUAUAUUACCUGGUA
The self-cleavage of the first is lower: 0.2 for the first, 0.5 for the second.

Going from GUCCUCUUUCACGUGCGCGGGAAAGAGAGAAGUGAACCAGAGAAACACACGUUGUGUUAUAUUACCUGGUA to GUCCUCUUUCACGUGCGCGGGAAAGAGAGAAGUGAACCAGAGAAACACACGUUGUGGUGUAUUACCUGGUA, the self-cleavage falls from 0.212 to 0.167.

Going from GUCCUCUUUCACGUGCGCGUCAAAGUGAGAAGUGAACCAGAGAAACACACGUUGUGGUAUAUUACCUGGUA to GUCCUCUUUCACGUGCGCGUCCAAGAGAGAAGUGAACCAGAGAAACACACGUUGUGGUAUAUUACCUGGUA, the self-cleavage rises from 0.57 to 0.61.

Compared with GUCCUCUUUCACGUGCGCGUCUAAGAGAGAAGUGAACCAGAGAAACACACGUUGUGGUAUAUUACCUGGUA, GUCCUCUUUCACGUGCGCGUAAAAGAGUGAAGUGAACCAGAGAAACACACGUUGUGGUAUAUUACCUGGUA is higher in self-cleavage: 0.715 for the first, 0.719 for the second.

Going from GUCCUCUUUCACGUGCGCGUAAAAGAGAGAACUGAACCAGAGAAACACACGUUGUGGUAUAUUACCUGGUA to GUCCUCUUUCACGUGCGCGUCAAGGAGAGAAGUGAACCAGAGAAACACACGUUGUGGUAUAUUACCUGGUA, the self-cleavage rises from 0.146 to 0.555.

Going from GUCCUCUUUCACGUGCGCGUCAACGAGAGAAGUGAACCAGAGAAACACACGUUGUGGUAUAUUACCUGGUA to GUCCUCUUUCACGUGCGCGUCAAAGAGAGCAGUGAACCAGAGAAACACACGUUGUGGUAUAUUACCUGGUA, the self-cleavage falls from 0.556 to 0.242.

Going from GUCCUCUUUCACGUGCGCGUCAAAGAGAGUAGUGAACCAGAGAAACACACGUUGUGGUAUAUUACCUGGUA to GUCCUCUUUCACGUGCGCGUAAAAGAGAGAAGUGAACCAGAGAAACACACGUUGUGGUGUAUUACCUGGUA, the self-cleavage falls from 0.139 to 0.125.

Going from GUCCUCUUUCACGUGCGCGGGAAAGAGAGAAGUGAACCAGCGAAACACACGUUGUGGUAUAUUACCUGGUA to GUCCUCUUUCACGUGCGCGGGAAAGAGAGAAGUGAACCAGUGAAACACACGUUGUGGUAUAUUACCUGGUA, the self-cleavage rises from 1.13 to 1.3.

First: GUCCUCUUUCACGUGCGCGUAAAAGAGAGAAGUGCACCAGAGAAACACACGUUGUGGUAUAUUACCUGGUA
Second: GUCCUCUUUCACGUGCGCGUAAAAGAGAGAAGUGAACCAGAGAAACACACGUUGUGGUAUAUGACCUGGUA
The self-cleavage of the first is higher: 0.788 for the first, 0.118 for the second.

Going from GUCCUCUUUCACGUGCGCGUAAAAGAGAGAAGUGAACCAGAGAAACACACGUUGUGGUAUAUCACCUGGUA to GUCCUCUUUCACGUGCGCGUAAAAGAGAGAAGUGAACCAUAGAAACACACGUUGUGGUAUAUUACCUGGUA, the self-cleavage falls from 0.155 to 0.151.

Compared with GUCCUCUUUCACGUGCGCGUAAAAGAGAGAAGUGAACCAGAGAAACACACGUUGUGGUAUAUUACCUGGUU, GUCCUCUUUCACGUGCGCGGGAAAGAGAGAAGUGAACCAGAGAAAUACACGUUGUGGUAUAUUACCUGGUA is lower in self-cleavage: 0.611 for the first, 0.0821 for the second.

Compared with GUCCUCUUUCACGUGCGCGGGAAAGAGAGAAGUUAACCAGAGAAACACACGUUGUGGUAUAUUACCUGGUA, GUCCUCUUUCACGUGCGCGUAAAAGAGAGAAGUUAACCAGAGAAACACACGUUGUGGUAUAUUACCUGGUA is lower in self-cleavage: 1.5 for the first, 1.08 for the second.

Compared with GUCCUCUUUCACGUGCGCGUAAAAGAGAGAAGUGAACCAGAGAAACACACGUUGUGGUAUAUUACCGGGUA, GUCCUCUUUCACGUGCGCGUAAAAGAGAGAAGUGAACCAGAGAAACAUACGUUGUGGUAUAUUACCUGGUA is lower in self-cleavage: 0.241 for the first, 0.0963 for the second.

First: GUCCUCUUUCACGUGCGCGUAAAAGAGAGAAGUGAACCAGAGAAACAAACGUUGUGGUAUAUUACCUGGUA
Second: GUCCUCUUUCACGUGCGCGUAAAAGAGAGAAGUGAGCCAGAGAAACACACGUUGUGGUAUAUUACCUGGUA
The self-cleavage of the first is lower: 0.19 for the first, 0.959 for the second.

First: GUCCUCUUUCACGUGCGCGGGAAAGAGAGAAGUGAACCAGAGAAACACACGUCGUGGUAUAUUACCUGGUA
Second: GUCCUCUUUCACGUGCGCGGGAAAGAGAGAAGUGAACCAGAGAAACACACGUAGUGGUAUAUUACCUGGUA
The self-cleavage of the first is lower: 0.633 for the first, 0.927 for the second.

Compared with GUCCUCUUUCACGUGCGCGUAAAAGAGAGAAGUGAACCAGAGAAACACACGUUAUGGUAUAUUACCUGGUA, GUCCUCUUUCACGUGCGCGUAAAAGAGAGAAGUGAACCAGAGAAACACACGUUCUGGUAUAUUACCUGGUA is lower in self-cleavage: 0.491 for the first, 0.293 for the second.

First: GUCCUCUUUCACGUGCGCGGGAAAGAGAGAAAUGAACCAGAGAAACACACGUUGUGGUAUAUUACCUGGUA
Second: GUCCUCUUUCACGUGCGCGUAAAAGAGAGAAGUGAACCAGAGAAACACACGUUGUGGUAAAUUACCUGGUA
The self-cleavage of the first is lower: 0.124 for the first, 0.804 for the second.

Compared with GUCCUCUUUCACGUGCGCGGGAAAGAGAGAAGUGAACCAGAGAAACACACGUUGUGGUAAAUUACCUGGUA, GUCCUCUUUCACGUGCGCGGGAAAGAGAGAAGUGAACCAGAGAAACACACGUUGUGGUACAUUACCUGGUA is higher in self-cleavage: 0.775 for the first, 0.815 for the second.

Going from GUCCUCUUUCACGUGCGCGUAAAAGAGAGAAGUGAACCAGAGGAACACACGUUGUGGUAUAUUACCUGGUA to GUCCUCUUUCACGUGCGCGGGAAAGAGAGAAGUGAACCAGAGAAACACACGUUGUGGUAUAUUACCUCGUA, the self-cleavage rises from 0.127 to 0.162.

Going from GUCCUCUUUCACGUGCGCGUAAAAGCGAGAAGUGAACCAGAGAAACACACGUUGUGGUAUAUUACCUGGUA to GUCCUCUUUCACGUGCGCGGGAAAGAGAGAAGUGAACCAGAGAAACACACGUUGUGGAAUAUUACCUGGUA, the self-cleavage rises from 0.0544 to 0.501.

Compared with GUCCUCUUUCACGUGCGCGGGAAAGAGAGAAGUGAACCAGAGAAACACACGUUGUGGUAUAUUAGCUGGUA, GUCCUCUUUCACGUGCGCGGGAAAGAGAGAAGUGAACCAGAGAAACACACGUUGUGGUAUAUUAACUGGUA is higher in self-cleavage: 0.177 for the first, 0.895 for the second.

Compared with GUCCUCUUUCACGUGCGCGGGAAAGAGAGAAGUGAACCAGAGAAACACAUGUUGUGGUAUAUUACCUGGUA, GUCCUCUUUCACGUGCGCGGGAAAGAGAGAAGUGAACCAGAGAAACACAAGUUGUGGUAUAUUACCUGGUA is lower in self-cleavage: 0.42 for the first, 0.246 for the second.

Going from GUCCUCUUUCACGUGCGCGUAAAAGAGAGAAGUGAACCAGAGAAACACACGUUGUGGUAUAUUACCUCGUA to GUCCUCUUUCACGUGCGCGGGAAAGAGAGAAGUGAACCAGAGAAACACACGUUGUGGUAUAUUACCUGGUU, the self-cleavage rises from 0.15 to 0.605.

Going from GUCCUCUUUCACGUGCGCGGGAAAGAGAGAAGUGAACCAGAGAAACACACGUUGUGGUAUAUUACCUGGUG to GUCCUCUUUCACGUGCGCGGGAAAGAGAGAAGUGAACCAGAGAAACACACGUUCUGGUAUAUUACCUGGUA, the self-cleavage falls from 0.971 to 0.321.
